Laboratory results reported in paper PMC3025549.

Target: recombinant mjRNAP (RNA polymerase of M. jannaschii), wild type (M. jannaschii) (UniProt Q58445)
Test: native gel or EMSA

B1: mjTFIIB K87-A (natural protein)
chain: MVWLMEALKTKENETTKEKKLTTKVEKSEKKEENVREEEIVCPICGSKEVVKDYERAEIVCAKCGCVIKEKLFDIGPEWRAFDHEQAIKRCRVGAPMTYSVDYNEPIIIKENGEIKVVKIGELIDKIIENSENIRREGILEIAKCKGIEVIAFNSNYKFKFMPVSEVSRHPVSEMFEIVVEGNKKVRVTRSHSVFTIRDNEVVPIRVDELKVGDILVLAKELPNIEEDIEIDKKFSKILGYIIAEGYYDDKKIVLSYDYNEKEFINETIDYFKSLNSDITIYSKDLNIQIEVKNKKIINLLKKLRVKNKRIPSIIFKSPYEIKKSFIDGIFNGKDAKVFVSKELAEDVIFLLLQIKENATINKKSINDIEVYEVRRITNIYTNRKLEKLINSDFIFLKIKEINKVEPTSGYAYDLTVPNAENFVAGFGGFVLHNTIHDKGLSTVIDWRNKDSYGKDLSANKRAQLYRLRKWQRRIRVSDAAERNLAFALSELDRITSKLGLPRHVRENAAIIYRGAVEKGLIRGRSIEGVVAAAIYAACRRCRVPRTLDEIAEASRVDRKEIGRTYRFLARELNIKLTPTNPIDYVPRFASELGLPGEVESKAIQILQQAAEKGLTSGRGPTGVAAAAIYIASVLLGCRRTQREVAEVAGVTEVTIRNRYKELTEHLDIDVTL
Question: B1 was tested. Which recruitment activity relative to wild type (% of wild type) did it give?
Answer: 140
